Where two headings read alike, the source gives them in different places. Starred links: 1 amine or outer side, 2 acyl side, 3 side chain; linkers in the order of their positions; H or OH if unused. Suc = O=C(CCC(=O)[*:2])[*:1]

One may read the Kd as a measure of binding affinity in units of concentration. For orientation: IC50 means the concentration that inhibits the measured activity by half. The low end stands for greater potency in that assay, the high end for weaker potency in that assay.

For assay [1], the target named is HisβTrCP/Skp1 and HisβTrCP/GSTSkp1 (immobilised on NTA Biacore chip), Q9Y297. As to the kind of experiment: SPR, Biacore T200, βTrCP/Skp1 immobilised. A general note: Surface plasmon resonance follows binding to a sensor surface in real time, without labels.
Chain of HisβTrCP/Skp1 and HisβTrCP/GSTSkp1 (immobilised on NTA Biacore chip), Q9Y297 (Q9Y297 175-605, chain 1 of 2): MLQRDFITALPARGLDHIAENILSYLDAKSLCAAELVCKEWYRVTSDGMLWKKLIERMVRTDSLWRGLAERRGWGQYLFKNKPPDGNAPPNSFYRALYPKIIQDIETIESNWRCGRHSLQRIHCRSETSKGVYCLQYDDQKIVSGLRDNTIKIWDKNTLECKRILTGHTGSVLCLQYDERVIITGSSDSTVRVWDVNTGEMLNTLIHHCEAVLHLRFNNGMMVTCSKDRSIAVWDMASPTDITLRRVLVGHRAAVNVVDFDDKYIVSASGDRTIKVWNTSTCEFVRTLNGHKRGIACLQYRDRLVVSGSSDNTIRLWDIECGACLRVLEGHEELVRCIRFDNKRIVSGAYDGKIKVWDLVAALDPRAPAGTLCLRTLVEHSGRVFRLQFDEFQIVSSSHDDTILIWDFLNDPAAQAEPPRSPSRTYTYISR
Chain of HisβTrCP/Skp1 and HisβTrCP/GSTSkp1 (immobilised on NTA Biacore chip), Q9Y297 (P63208 whole entry, chain 2 of 2, further chain): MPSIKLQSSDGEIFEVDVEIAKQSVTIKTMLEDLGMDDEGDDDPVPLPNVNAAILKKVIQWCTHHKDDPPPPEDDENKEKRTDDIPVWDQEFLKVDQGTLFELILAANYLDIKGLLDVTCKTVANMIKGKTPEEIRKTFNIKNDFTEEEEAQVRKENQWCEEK
Assay [2] addresses βTrCP (tag cleaved and complexed with Skp1), Q9Y297. The assay can be described thus: FP competition vs fluorescein-IκB peptide.
The next assay has as its target Skp2, Q13309. The assay can be described thus: cell-based or functional assay.
Another assay addresses T1, Fbw7, Q969H0.
T1 chain: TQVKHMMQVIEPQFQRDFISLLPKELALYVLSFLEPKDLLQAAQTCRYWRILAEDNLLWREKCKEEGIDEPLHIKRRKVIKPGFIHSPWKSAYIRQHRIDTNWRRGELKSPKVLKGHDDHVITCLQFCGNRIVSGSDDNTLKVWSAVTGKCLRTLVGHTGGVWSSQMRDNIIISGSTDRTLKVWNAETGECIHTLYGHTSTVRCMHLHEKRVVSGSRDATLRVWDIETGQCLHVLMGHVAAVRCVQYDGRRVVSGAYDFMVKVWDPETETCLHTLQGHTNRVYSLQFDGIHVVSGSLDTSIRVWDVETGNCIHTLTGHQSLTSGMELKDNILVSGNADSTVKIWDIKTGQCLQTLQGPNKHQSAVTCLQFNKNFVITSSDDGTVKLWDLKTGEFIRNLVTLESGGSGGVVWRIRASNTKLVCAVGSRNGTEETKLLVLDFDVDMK
As to the kind of experiment: cell-based or functional assay.

Assay [3] has as its target βTrCP (tag cleaved and complexed with Skp1), Q9Y297. As to the kind of experiment: FP competition vs fluorescein-IκB peptide. The source holds these as a separate data set.

Chain of βTrCP (tag cleaved and complexed with Skp1), Q9Y297 (Q9Y297 175-605, chain 1 of 2): as the sequence (Q9Y297 175-605, chain 1 of 2) above
Chain of βTrCP (tag cleaved and complexed with Skp1), Q9Y297 (P63208 whole entry, chain 2 of 2, further chain): as the sequence (P63208 whole entry, chain 2 of 2, further chain) above
Chain of Skp2, Q13309 (Q13309 whole entry): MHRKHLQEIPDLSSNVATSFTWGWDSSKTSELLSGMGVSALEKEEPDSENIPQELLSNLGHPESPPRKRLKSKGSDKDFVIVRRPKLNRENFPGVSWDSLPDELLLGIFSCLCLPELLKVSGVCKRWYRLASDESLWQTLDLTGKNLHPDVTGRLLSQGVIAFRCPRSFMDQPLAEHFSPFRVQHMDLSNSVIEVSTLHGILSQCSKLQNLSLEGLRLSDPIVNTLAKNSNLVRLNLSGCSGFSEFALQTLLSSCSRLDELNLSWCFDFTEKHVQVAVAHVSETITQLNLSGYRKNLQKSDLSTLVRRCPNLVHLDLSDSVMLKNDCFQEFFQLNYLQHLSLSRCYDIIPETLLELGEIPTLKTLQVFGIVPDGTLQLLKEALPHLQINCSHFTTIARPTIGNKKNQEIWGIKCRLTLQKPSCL

B1: Suc-EGYFE-NH2 (peptide)
peptide: Suc-EGYFE-NH2
SMILES: NC(=O)[C@H](CCC(=O)O)NC(=O)[C@H](Cc1ccccc1)NC(=O)[C@H](Cc1ccc(O)cc1)NC(=O)CNC(=O)[C@H](CCC(=O)O)NC(=O)CCC(=O)O
In the case of B1, the Kd in assay [1] was found to be 0.537 µM. This molecule also displayed a half-maximal inhibitory concentration (IC50) in assay [2] of 1.04 µM. In the assay with Skp2, Q13309, this molecule came in with a % Inhibition Skp2 @ 10 µM of 11% and a % Inhibition Skp2 @ (100 µM) of 28%. In the assay with Fbw7, Q969H0, this molecule registered a % Inhibition Fbw7 @ 10 µM of 0% and a % Inhibition Fbw7 @ (100 µM) of 0%. The molecule also showed a half-maximal inhibitory concentration (IC50) in assay [3] of 1 µM.

Values taken from US20190106460A1, “BINDING INHIBITORS OF THE BETA. TRANSDUCIN REPEAT-CONTAINING PROTEIN” (priority 2011, published 2019).
